Legend:
[1] = molecular target: T1, cIAP1 (human, UniProt Q13490 1-618); assay: TRAIL-R2 co-IP from transfected TRA-8-resistant tumor cells, Western blot with anti-DDX3 and anti-cIAP1
Procedure: (§1) The transfected cells were incubated with 500 ng/ml TRA-8 overnight.
Four type cells were transfected with DDX3ΔCARD. […] Furthermore, the susceptibility of transfected cells to TRA-8-mediated apoptosis was examined using the ATPLITE assay.

[2] = molecular target: T1, cIAP1; assay: nickel bead pull-down of His-tagged DDX3 from transfected HEK293A cells, anti-cIAP1 Western blot
Procedure: as §1

T1 sequence (Q13490 whole entry): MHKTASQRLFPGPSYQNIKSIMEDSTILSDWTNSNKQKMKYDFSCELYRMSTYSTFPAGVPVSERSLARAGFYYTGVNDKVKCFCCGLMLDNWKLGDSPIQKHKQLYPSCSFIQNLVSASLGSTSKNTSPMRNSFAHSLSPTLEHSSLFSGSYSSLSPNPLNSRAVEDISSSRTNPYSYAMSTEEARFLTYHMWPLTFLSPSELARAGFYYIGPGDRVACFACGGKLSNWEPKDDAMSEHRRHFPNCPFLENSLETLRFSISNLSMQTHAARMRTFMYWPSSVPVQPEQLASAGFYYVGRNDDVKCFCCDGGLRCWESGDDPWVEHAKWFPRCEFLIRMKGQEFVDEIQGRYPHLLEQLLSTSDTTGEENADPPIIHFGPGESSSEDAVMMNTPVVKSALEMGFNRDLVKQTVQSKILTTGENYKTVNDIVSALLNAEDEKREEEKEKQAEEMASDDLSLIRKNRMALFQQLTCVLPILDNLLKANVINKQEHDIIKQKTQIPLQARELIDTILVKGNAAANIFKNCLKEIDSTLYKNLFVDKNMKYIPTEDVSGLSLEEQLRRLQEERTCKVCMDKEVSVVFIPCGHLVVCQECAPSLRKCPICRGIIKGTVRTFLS

Row | binding result [1] | binding result [2] | Binder
1 | no binding | – | DDX3ΔCARD (DDX3Δ151-662) (other, also called CARD-truncated DDX3; dominant negative mutant DDX3 lacking aa 1-150) FSGGNTGINFEKYDDIPVEATGNNCPPHIESFSDVEMGEIIMGNIELTRYTRPTPVQKHAIPIIKEKRDLMACAQTGSGKTAAFLLPILSQIYSDGPGEALRAMKENGRYGRRKQYPISLVLAPTRELAVQIYEEARKFSYRSRVRPCVVYGGADIGQQIRDLERGCHLLVATPGRLVDMMERGKIGLDFCKYLVLDEADRMLDMGFEPQIRRIVEQDTMPPKGVRHTMMFSATFPKEIQMLARDFLDEYIFLAVGRVGSTSENITQKVVWVEESDKRSFLLDLLNATGKDSLTLVFVETKKGADSLEDFLYHEGYACTSIHGDRSQRDREEALHQFRSGKSPILVATAVAARGLDISNVKHVINFDLPSDIEEYVHRIGRTGRVGNLGLATSFFNERNINITKDLLDLLVEAKQEVPSWLENMAYEHHYKGSSRGRSKSSRFSGGFGARDYRQSSGASSSSFSSSRASSSRSGGGGHGSSRGFGGGGYGGFYNSDGYGGNYNSQGVDWWGN
2 | – | no binding | DDX3Δ101-662 (other, Transfected into HEK293A cells and pulled down with nickel beads; also called the DDX3 with the first 100 aa deleted; N-terminal aa 1-aa 100 deleted DDX3; not shown: N-terminal 6-His tag of the pcDNA3.1-His vector) RSDYDGIGSRGDRSGFGKFERGGNSRWCDKSDEDDWSKPLPPSERLEQELFSGGNTGINFEKYDDIPVEATGNNCPPHIESFSDVEMGEIIMGNIELTRYTRPTPVQKHAIPIIKEKRDLMACAQTGSGKTAAFLLPILSQIYSDGPGEALRAMKENGRYGRRKQYPISLVLAPTRELAVQIYEEARKFSYRSRVRPCVVYGGADIGQQIRDLERGCHLLVATPGRLVDMMERGKIGLDFCKYLVLDEADRMLDMGFEPQIRRIVEQDTMPPKGVRHTMMFSATFPKEIQMLARDFLDEYIFLAVGRVGSTSENITQKVVWVEESDKRSFLLDLLNATGKDSLTLVFVETKKGADSLEDFLYHEGYACTSIHGDRSQRDREEALHQFRSGKSPILVATAVAARGLDISNVKHVINFDLPSDIEEYVHRIGRTGRVGNLGLATSFFNERNINITKDLLDLLVEAKQEVPSWLENMAYEHHYKGSSRGRSKSSRFSGGFGARDYRQSSGASSSSFSSSRASSSRSGGGGHGSSRGFGGGGYGGFYNSDGYGGNYNSQGVDWWGN

Reference: patent US20100135951A1 (UAB RESEARCH FOUNDATION, published 2010)
